The record followed here is publication PMC3871819, “Differentially expressed myo-inositol monophosphatase gene (CaIMP) in chickpea (Cicer arietinum L.) encodes a lithium-sensitive phosphatase enzyme with broad substrate specificity and improves seed germination and seedling growth under abiotic stresses” (Journal of Experimental Botany, 2013).

Substrate in data set [1]: O=P(O)(O)OC1O[C@@H](CO)[C@@H](O)[C@@H](O)[C@@H]1O
Description: malachite green phosphate release assay. It counts as biochemical, Cicer arietinum. The following applies: Mg2+ (optimum 5 mM; typical assay 3 mM MgCl2), 50 mM Tris-Cl pH 8, 37 °C. The source says: (§1) malachite green phosphate release assay on CaIMP

Substrate in data set [2]: O=P(O)(O)O[C@@H]1[C@H](O)[C@H](O)[C@@H](O)[C@H](O)[C@H]1O
Put plainly: malachite green phosphate release assay. The following applies: Mg2+ (optimum 5 mM; typical assay 3 mM MgCl2), 50 mM Tris-Cl pH 8, 37 °C. The class given is biochemical, Cicer arietinum.
From the text: as §1

B1: CaIMP (Cicer arietinum) (protein)
chain: MVDNDSHSEFLASAVEAAHKAGDVIRKAFYQTKHVQHKGTVDLVTETDKACEELIFNHLKELYPTHKFIGEETTAAFGTTELTDDPTWIVDPLDGTTNFVHGFPFVCVSIGLTIGKVPTVGVVYNPIINELFTAIRGQGAFLNGNPIKVSSQTELVSSLLATEAGTKRDKATLDASTDRINSLLYKVRSLRMSGSCALNLCGVACGRLDLFFETGFGGPWDVAGGAVIVREAGGVVFDPSGADFDITAQRVAASNPLLKDAFVDALRQTE
notes: full-length ORF (813 bp, 270 aa, ~30 kDa) in pET-23b NdeI/XhoI, E. coli BL21(DE3)
The term Km denotes the substrate concentration at which the rate is half of its maximum. As usually defined, the Vmax is the top rate of the reaction or transport when substrate is in excess. On to B1, for which, in data set [1], the Km was 16.7 µM and the Vmax worked out at 5.61 µmol/min/mg. Besides, in data set [2], the Km is 25.9 µM and the Vmax stood at 4.86 µmol/min/mg.
